Assay results published in patent US7309578B2, “Therapeutic treatment of chronic obstructive pulmonary disease” (The Trustees of Columbia University in the City of New York, priority 2000, dated 2007).

Columns and labels:
[1] = system: small airway epithelial cells, lung microvascular endothelial cells, lung fibroblasts; assay: Transfection of lung cells with a sFrp1 expression vector, Annexin-V-Biotin assay; type: cell-based, human; conditions: for apoptosis-inducing activity on transfection: normal human primary lung epithelial, endothelial and fibroblast cells transfected with sFrp1-Gfp expression vector
Source text: (§1) Transfection of Lung Cells with a sFrp1 Expression Vector: The mouse sFrp1 full length cDNA was generously provided by Drs. Jeremy Nathans and Amir Rattner, John Hopkins University, Baltimore, and subcloned into a pCMS-EGFP vector (Clontech, Palo Alto, Calif.). A gene of sFrp1w&s inserted into the multiple cloning site at EcoRI and Sail sites between the cytomegalovirus early promoter and SV40 polyadenilation signals, which direct proper processing of the 3′ end of sFrp1 mRNA. The vector also has a Gfp (green fluorescent protein) gene located in downstream of the sFrp1-SV40 polyadenilation signals and ligated between the SV40 enhancer/promoter sequence and a polyadenylation signal from the bovine growth hormone gene. This vector construct allows transcriptions of sFrp1 and Gfp as separate proteins in transfected cells. Normal human primary cultured cells of small airway epithelial cells (SAEC 6043), lung microvascular endothelial cells (HMVEC L 6521-3), and lung fibroblasts (NHLF 5975) were obtained from BioWhittaker (Walkersville, Md.) and cultured in proper media containing 10% fetal bovine serum. Cells were plated 2 days before transfection in 4-well LabTek II chamber (Nalge Nunc International, Naperville, Ill.) at 2×10^4 cells/chamber and incubated at 37*C in 5% COj incubator. The sFrp1-Gjp expression vector or Gfp vector without sFrp gene (0.8 ujj) were transfected into cells using Lipofectaniine PLUS according to the manufacture's instruction (Gibco BRL). For Annexin-V-Biotin assay (Roche Diagnostics GmbH, Manheim, Germany), ceils were harvested at 72, 48, 24, 12 or 6 h after transfection and the reaction was detected by ExtraAvidin-Cy3 (Sigma). For caspase 3 activation assay, cells were fixed in 3% paraformaldehyde in PBS after 24 or 48 h of transfection and incubated with anti-human active caspase 3 antibody made by rabbit (x100, clone 9661. Cell Signaling Technology, Beverly, Mass.). Biotinylated goat IgG to rabbit IgG (Vector) and ExtraAvidin-Cy3 (Sigma) were used for detection of binding of a primary antibody.

[2] = system: small airway epithelial cells, lung microvascular endothelial cells, lung fibroblasts; assay: Transfection of lung cells with a sFrp1 expression vector, caspase 3 activation assay (immunostaining); type: cell-based, human; conditions: 24 or 48 h after transfection
Source text: as §1, with “Cells were plated 2 days before transfection in 4-well LabTek II chamber (Nalge Nunc International, Naperville, Ill.) at 2×10^4 cells/chamber and incubated at 37*C in 5% COj incubator. The sFrp1-Gjp expression vector or Gfp vector without sFrp gene (0.8 ujj) were transfected into cells using Lipofectaniine PLUS according to the manufacture's instruction (Gibco BRL).” left out, “For caspase 3 activation assay, cells were fixed in 3% paraformaldehyde in PBS after 24 or 48 h of transfection and incubated with anti-human active caspase 3 antibody made by rabbit (x100, clone 9661. Cell Signaling Technology, Beverly, Mass.). Biotinylated goat IgG to rabbit IgG (Vector) and ExtraAvidin-Cy3 (Sigma) were used for detection of binding of a primary antibody.” left out

B1: sFrp1: mouse secreted frizzled-related protein 1, expressed from full length cDNA in a pCMS-EGFP vector transfected into cells (protein, UniProt Q8C4U3 1-314, looked up)
chain: MGVGRSARGRGGAASGVLLALAAALLAAGSASEYDYVSFQSDIGSYQSGRFYTKPPQCVDIPVDLRLCHNVGYKKMVLPNLLEHETMAEVKQQASSWVPLLNKNCHMGTQVFLCSLFAPVCLDRPIYPCRWLCEAVRDSCEPVMQFFGFYWPEMLKCDKFPEGDVCIAMTPPNTTEASKPQGTTVCPPCDNELKSEAIIEHLCASEFALRMKIKEVKKENGDKKIVPKKKKPLKLGPIKKKELKRLVLFLKNGADCPCHQLDNLSHNFLIMGRKVKSQYLLTAIHKWDKKNKEFKNFMKRMKNHECPTFQSVFK
modifications: full-length
notes: mouse secreted frizzled-related protein 1, expressed from full length cDNA in a pCMS-EGFP vector transfected into cells
- phosphatidylserine exposure to the outer cell membrane (annexin V assay) ([1]; 6-72 h after transfection, data not shown): time- and dose-dependency of cell death to sFrp1 expression
- apoptosis-inducing activity on transfection [1]: apoptosis-inducing activity of sFrp1 without preference of cell-type examined
- apoptosis-inducing activity on transfection ([1]; listed as sFRP-1): leads to apoptosis in lung epithelial cells, endothelial cells and fibroblasts
- active caspase 3 immunostaining [2]: presence of acive caspase 3 in and surrounding cells transfected sFrp1
